Source: PMC314469, “Protein Interaction Networks by Proteome Peptide Scanning” (PLoS Biology, 2004)

T1: Abp1 SH3 (ABP1_YEAST), P15891
T1 chain: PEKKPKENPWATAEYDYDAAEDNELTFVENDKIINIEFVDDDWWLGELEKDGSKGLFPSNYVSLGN


Target: T1, Abp1 SH3 (ABP1_YEAST), P15891
Assay: SPOT array

normalised SPOT signal, Boehringer light units (BLU); mean over the file's lines of this peptide	Binder
9.2	SHEHEEPTYHPPKP [YMR231W 646-659]
85.4	SEKPEETPNPLKP [YKL077W 65-77]
113	SSFTSQDSQKPLKP [YDL240W 56-69]
63.3	SAKEEENPVEVKP [YPR112C 621-633]
6670	SKRKPSPPSQRRP [YPL141C 761-773]
28.6	SDTKTVVPVTNKP [YML035C 237-249]
92.3	SIKEEKKPFDKKP [YMR284W 586-598]
56.6	SLEHDGRPKTIKP [YKL077W 80-92]
1020	SKGARFLPAPHRP [YGR154C 61-73]
276	RYTYLPSPSYFRP [YPL066W 175-187]
49.3	SEQDATDPASAKP [YIL115C 491-503]
64.2	SIPSKNTPDASKP [YLR335W 355-367]
45.7	SDDYEELATIPYRP [YOR168W 585-598]
226	SKEVTRASTSPPRP [YDR538W 41-54]
100	SASSTPIPVLGKP [YOR098C 775-787]
159	SKIVTLPPTIFKP [YOR341W 710-722]
289	SIQSKIMLESPKKP [YJL147C 308-321]
105	SAIPLGTPEKGKP [YMR086W 669-681]
219	RYASSLPPNALKP [YGL191W 8-20]
244	RVSITKQPKALKP [YIL074C 41-53]

normalised SPOT signal, Boehringer light units (BLU); mean over the file's lines of this peptide	Binder
98.7	SDINQLQGVYPSRP [YBR026C 64-77]
82.8	SGNKEAIPALIKP [YKL157W 770-782]
22800	SFTIPFLPKIPQKP [YLR164W 23-36]
172	SASSNASDSGPQRP [YDL106C 66-79]
88.9	SATPRRASSRPTRP [YNR049C 146-159]
5200	SSSLPLPKLRPPRP [YKL097C 59-72]
78.6	RVRKTHVPASKRP [YGL061C 212-224]
164	SHKQKRTLANPDKP [YPR079W 40-53]
0	SAKKAPIDYSPSRP [YDL025C 107-120]
46	SSSIKLQDQDPSKP [YOR205C 26-39]
52.8	SGDAALVKFVPSKP [YBR118W 394-407]
52.2	SAPQLTVPEPSKP [YNL034W 543-555]
30.6	SGLDGILEDEPSRP [YPR117W 1516-1529]
114	SDTNDIKTPHPERP [YER169W 626-639]
144	SKAGDEERFLPNRP [YPR117W 1308-1321]
1930	RSSTPSHPRMPKP [YBR245C 789-801]
93.2	SDSEENEPRRKKP [YMR014W 341-353]
27.9	SLKLNSKPVELKP [YJL041W 617-629]
124	SKAKDKARGNPEKP [YJL036W 11-24]
178	SIYTSWARDNPSKP [YHR209W 240-253]

normalised SPOT signal, Boehringer light units (BLU); mean over the file's lines of this peptide	Binder
169	SKQFLLSPIFAKP [YHR099W 1329-1341]
1200	RVEMQSKKEDPNRP [YMR241W 239-252]
88.5	RSRLQEKELPPIKP [YBL007C 612-625]
186	SLKFSLLNHHPYKP [YPR025C 204-217]
60.4	SISEQYYPEEPTKP [YGR019W 2-15]
138	SANAKLHRTKPVKP [YLR430W 1001-1014]
115	SKLKITRNPNPSKP [YHR208W 26-39]
49.4	RTKAIHSHGAPFRP [YBL080C 12-25]
124	SDISAMQPVNPKP [YPR182W 5-17]
62.5	SETKSVPSIEPFKP [YER032W 653-666]
92.9	SFVDKRNPVDNKP [YOL008W 79-91]
15700	SISSKIRPTPRKP [YER118C 2-14]
527	RSSITNPVFNPRKP [YMR068W 271-284]
54.4	SEWNWPQPVILKP [YKR002W 264-276]
116	SLHWTGIPFLGKP [YCR025C 79-91]
560	SGKMRSRSSSPVRP [YKL185W 433-446]
253	SSSALLRRTIPKRP [YDL142C 9-22]
287	RWINKIGPLFDKP [YDR176W 652-664]
